Measurements taken from patent US8653242B2, “Therapeutic antibodies against flagellated Pseudomonas aeruginosa” (priority 2010, dated 2014).

Tests used:
[1] = test system: mixed PA27853 and Ka02 bacteria; experiment: ELISA on mixed fixed bacteria; assay type: binding, P. aeruginosa; settings: 1 nM mAb; wells coated with half the amount of each strain
Procedure: (§1) From a single fresh bacterial colony, PA strains 27853 (harboring flagellin type A) or Ka02 (harboring flagellin type B) were grown overnight in 5 ml LB at 37° C. Thereafter, bacterial cultures were centrifuged at 1500 g for 30 min and following removal of the clear supernatant, pellets were washed twice with 20 ml PBS with intervening centrifugation. The final pellet was resuspended in a volume of PBS (˜10 ml) and adjusted to generate an OD600 of ˜0.2 and maintained on ice prior to coating on ELISA plates which were prepared as follows: to the wells of flat-bottomed ELISA plates (Nunc, cat #442404), 50 μl poly-L-lysine (PLL, Sigma Cat # P-1524) of a 1 μg/ml solution was added and plates were incubated for 30 min at room temperature. Thereafter, non-adsorbed PLL was removed. Fifty μl of the appropriate bacterial suspensions from the different strains at 0.2 OD600 nm were added to the PLL-coated ELISA plates. In some wells, a “mixed-bacterial population” was added. To that end, 25 μl of PA 27853 and 25 μl of Ka02 bacterial suspensions were added to the same wells. […]
ELISA plates containing the fixed P. aeruginosa bacteria, were blocked by adding 200 μl PBS-10% FBS for 60 min at room temperature. […] Thereafter, signal was quenched with 50 μA 10% H2SO4 and plates read at 450 nm in a Microtiter plate reader (Anthos MultiRead 400). […]

[2] = test system: flagellin type A strains (PA141, PA49, PA1, PA409 and PAK); experiment: Western blot of P. aeruginosa lysates, flagellin type A strains; assay type: binding; settings: mAb 10 μg/ml
Procedure: (§2) The binding specificity of the chimeric LST-003 mAb was assessed in a western blot experiment as compared to the parental mouse LST-001 mAb. Two identical, yet separate nitrocellulose membranes containing a panel of blotted P. aeruginosa lysates of type A or B flagellin following electrophoresis were hybridized with either mouse LST-001 (FIG. 5A) or chimeric LST-003 (FIG. 5B) mAbs at identical final concentrations (10 μg/ml) with the ensuing detecting secondary peroxidase-conjugated antibodies being anti-mouse Fc or anti-human Fc respectively. Laboratory strains PAK (type A flagellin) or PA01 (type B flagellin) were included as appropriate controls whereas other strains represented multi-drug resistant (MDR) P. aeruginosa strains. […] FIG. 6 also depicts binding of LST-001, LST-002 and LST-003 to immobilized, whole P. aeruginosa as measured in an ELISA and confirms the western blot findings. See below in Example 7 for the ELISA protocol.

[3] = biological target: T1, flagellin type B strains (PA21 and PA01) (Pseudomonas aeruginosa, UniProt P72151); experiment: Western blot of P. aeruginosa lysates, flagellin type B strains; assay type: binding; settings: mAb 10 μg/ml
T1 construct: a panel of blotted P. aeruginosa lysates of type A or B flagellin; endogenous in cells; host or cells: P. aeruginosa strains PA21 (MDR isolate) and PA01 (laboratory strain)
Procedure: as §2

[4] = biological target: P. aeruginosa flagellin type A (Pseudomonas aeruginosa, UniProt P21184); experiment: ELISA of LST-009 on recombinant flagellin type A; assay type: binding; settings: 250 ng/well antigen
Procedure: (§3) Two hundred and fifty ng (250 ng) of P. aeruginosa flagellin type A or B (50 μl from 5 μg/ml) were dispensed into each well of ELISA plates (Nunc, cat #442404) and coating allowed to proceed for 2 hours at room temperature with gentle shaking. Plates were then blocked with 200 μl PBS-10% fetal bovine serum (FBS) overnight at 4° C.
(§4) To that end, following three washes with PBS-0.05% Tween-20, 50 μl of a goat anti-human IgG (Fc)-HRP (Cat # A80-104P; Bethyl, Tex., USA) was added at a dilution of 1:10,000 in PBS-10% FBS with incubation allowed to proceed for 60 min at room temperature. Following 3 separate washes with PBS-Tween-20 (0.05%) and gentle tapping of plates on paper towels to remove final traces of wash buffer, 50 μl TMB/E substrate solution (Cat #ES001-500 ml; Millipore) was added for 15 min at room temperature. Thereafter, signal was quenched with 50 μl 10% H2SO4 and plates read at 450 nm in a Microtiter plate reader (Anthos MultiRead 400).

Ka02 (flagellin type B) = experiment: ELISA on formaldehyde-fixed Ka02; assay type: binding, P. aeruginosa; settings: fixed whole bacteria ELISA, 1 nM mAb
Procedure: as §1
(§5) ELISA plates containing the fixed P. aeruginosa bacteria, were blocked by adding 200 μl PBS-10% FBS for 60 min at room temperature. […] Thereafter, signal was quenched with 50 μA 10% H2SO4 and plates read at 450 nm in a Microtiter plate reader (Anthos MultiRead 400).

[5] = test system: PA27853 (flagellin type A); experiment: ELISA on formaldehyde-fixed PA27853; assay type: binding, P. aeruginosa; settings: fixed whole bacteria ELISA, 1 nM mAb
Procedure: as §1, §5

[6] = biological target: P. aeruginosa flagellin type B (Pseudomonas aeruginosa, UniProt P72151); experiment: ELISA of LST-009 on recombinant flagellin type B; assay type: binding; settings: 250 ng/well antigen
Procedure: as §3, §4

T1 sequence (P72151 whole entry): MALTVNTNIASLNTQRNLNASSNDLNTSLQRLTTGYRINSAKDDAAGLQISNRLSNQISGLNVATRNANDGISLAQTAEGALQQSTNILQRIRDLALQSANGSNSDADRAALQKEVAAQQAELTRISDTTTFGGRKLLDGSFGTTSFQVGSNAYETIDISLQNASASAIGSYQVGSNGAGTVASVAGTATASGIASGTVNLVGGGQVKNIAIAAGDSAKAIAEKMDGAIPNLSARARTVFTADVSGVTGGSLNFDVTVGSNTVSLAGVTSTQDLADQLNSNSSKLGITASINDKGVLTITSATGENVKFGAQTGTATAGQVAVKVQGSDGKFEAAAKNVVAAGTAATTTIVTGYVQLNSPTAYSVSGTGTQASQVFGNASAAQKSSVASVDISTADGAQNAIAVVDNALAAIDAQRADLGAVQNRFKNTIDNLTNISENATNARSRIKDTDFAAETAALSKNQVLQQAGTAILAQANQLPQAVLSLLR
P. aeruginosa flagellin type B, sequence (P72151 whole entry): as above
P. aeruginosa flagellin type A, sequence (P21184 whole entry): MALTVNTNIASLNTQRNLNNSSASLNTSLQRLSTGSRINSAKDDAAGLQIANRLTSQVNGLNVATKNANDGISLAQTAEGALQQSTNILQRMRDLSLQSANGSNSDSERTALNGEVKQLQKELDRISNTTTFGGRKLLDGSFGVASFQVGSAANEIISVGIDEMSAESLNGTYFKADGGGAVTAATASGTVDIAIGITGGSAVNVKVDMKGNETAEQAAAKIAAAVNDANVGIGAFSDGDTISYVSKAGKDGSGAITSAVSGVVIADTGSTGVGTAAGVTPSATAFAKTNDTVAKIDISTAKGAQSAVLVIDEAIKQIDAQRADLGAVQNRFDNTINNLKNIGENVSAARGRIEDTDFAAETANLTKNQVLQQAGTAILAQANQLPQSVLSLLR

B1: LST-003 (antibody, V domains shown)
VH: MMVLSLLYLLTAIPGILSDVQLQESGPGLVKPSQSLSLPCSVTGYSITSGYYWNWIRQFPGNKLEWMGYIRYDGNNNYNPSLKNRISITHDTSKNQFFLKLNYVTTEDTATYYCARGLQFYFDSWGQGTTLTVSS
VL: MVLILLLLWVSGTCGDIVMSQSPSSLAVSGGEKVTMSCKSSQSLLNGSYQKHTLAWYQQKPGQSPKLLIYWASTRESGVPDRFTGSGSGTDFTLTISSVKAEDLAVYYCQQYYSYPWTFGGGTKLEIKR
modifications: human IgG1 constant domains lacking entries
- OD as compared to FIG. 16 (full amount of bacteria) [1]: approximately 50%
- immunoblot reactivity to flagellin type A strains [2]: stronger binding
- immunoblot reactivity to flagellin type B strains [3]: not flagellin type B
- EC50 towards P. aeruginosa flagellin type A [4]: approximately 65 ng/ml
- binding to Ka02 (Ka02 (flagellin type B)): failed to bind Ka02

B2: LST-004 (antibody, V domains shown)
VH: MNFGLSLVFLVLILKGVQCEVMLVESGGGLVKPGGSLKLSCAASGFTFSTFTMSWVRQTPEKRLECVATINGGGGNTYYPDSVKGRFTISRDNAKNNLYLQMSSLRSEDTAFYFCSRLYGIYAMDYWGQGTSVTVSS
VL: MKSHTQVFVYMLLWLSGVEGDIVMTQSHIFMSTSVGDRVSITCKASQDVGSAVAWYQQKPGQSPKVLIYWTSTRHTGVPDRFAGSGSGTEFTLTISNVQSEDLADYFCQQYSSYPLTFGAGTKLELKR
modifications: human IgG1 constant domains lacking entries
- OD as compared to FIG. 16 (full amount of bacteria) [1]: approximately 50%
- binding to PA27853 [5]: minimal signal
- EC50 towards P. aeruginosa flagellin type B [6]: approximately 300 ng/ml
